B1: Twister Ribozyme (parent)
chain: AACACUGCCAAUGCCGGUCCCAAGCCCGGAUAAAAGUGGAGGGGGCGG

Variants of: B1
Assay: self-cleavage, relative activity (ratio to wild type); higher = more cleavage; co-transcriptional

Going from G36U U37C to G36U U37A, the self-cleavage falls from 0.283 to 0.177.

Compared with A34U G47U, A34U G47C is lower in self-cleavage: 0.502 for the first, 0.247 for the second.

Compared with A34U G47A, A33U G45C is lower in self-cleavage: 0.601 for the first, 0.554 for the second.

First: G36U G42U
Second: A35U G44U
The self-cleavage of the first is lower: 0.103 for the first, 0.92 for the second.

Compared with A35U G44C, A33U C46A is lower in self-cleavage: 0.974 for the first, 0.851 for the second.

Going from A33U C46U to A33U C46G, the self-cleavage rises from 0.917 to 0.921.

Going from U37A C46A to G36U, the self-cleavage falls from 0.844 to 0.479.

First: G36C
Second: G36A
The self-cleavage of the first is lower: 0.691 for the first, 0.843 for the second.

First: A35C A40C
Second: A35C G36U
The self-cleavage of the first is lower: 0.154 for the first, 0.477 for the second.

Going from A35C G36A to G38U G48C, the self-cleavage rises from 0.491 to 1.05.

Compared with A35G G44U, A34U G41A is lower in self-cleavage: 0.831 for the first, 0.163 for the second.

First: A34U G41C
Second: A34U G41U
The self-cleavage of the first is lower: 0.176 for the first, 0.185 for the second.

Going from G38C A40U to G36C C46U, the self-cleavage rises from 0.129 to 0.585.

First: A33U U37G
Second: A33U U37A
The self-cleavage of the first is lower: 0.591 for the first, 0.688 for the second.

Compared with G39A G45C, G39A G45U is lower in self-cleavage: 0.234 for the first, 0.231 for the second.

First: G36C A40G
Second: G36C A40C
The self-cleavage of the first is lower: 0.0963 for the first, 0.15 for the second.

First: G39A G42A
Second: G39A G42U
The self-cleavage of the first is lower: 0.146 for the first, 0.164 for the second.

Compared with G38A G42U, U37A G45U is higher in self-cleavage: 0.133 for the first, 0.617 for the second.

Going from U37A G45A to A34G G44U, the self-cleavage falls from 0.835 to 0.722.

Compared with A34G G44C, G36U G47C is lower in self-cleavage: 0.783 for the first, 0.198 for the second.

Compared with G36U G47A, G36U G47U is higher in self-cleavage: 0.272 for the first, 0.412 for the second.

Compared with G36A G39A, G36A G39C is lower in self-cleavage: 0.195 for the first, 0.115 for the second.

First: A35U G39A
Second: A35U G39U
The self-cleavage of the first is higher: 0.316 for the first, 0.134 for the second.

Compared with G38A A40C, U37A A40U is higher in self-cleavage: 0.129 for the first, 0.137 for the second.

Compared with U37A A40C, U37A A40G is higher in self-cleavage: 0.127 for the first, 0.165 for the second.

Compared with A34U G39A, A34U G39U is lower in self-cleavage: 0.199 for the first, 0.139 for the second.

First: A33G C46G
Second: A34G C46A
The self-cleavage of the first is higher: 0.855 for the first, 0.736 for the second.

Compared with A34G C46U, A35U G45A is higher in self-cleavage: 0.834 for the first, 1.02 for the second.

First: G36C G39U
Second: G36C G39C
The self-cleavage of the first is higher: 0.128 for the first, 0.113 for the second.

First: G36C G39A
Second: A35C G43U
The self-cleavage of the first is lower: 0.122 for the first, 0.456 for the second.

First: U37C G47U
Second: U37C G47A
The self-cleavage of the first is higher: 0.585 for the first, 0.478 for the second.

Compared with U37C G48U, U37C G48C is lower in self-cleavage: 0.881 for the first, 0.843 for the second.

Going from G38U C46A to A33C G44C, the self-cleavage rises from 0.794 to 0.852.

Compared with A33C G44A, A33G A35G is higher in self-cleavage: 0.832 for the first, 0.865 for the second.

Going from A33G A35U to A33G A40U, the self-cleavage falls from 0.789 to 0.184.

Compared with U37G, U37C is lower in self-cleavage: 0.861 for the first, 0.738 for the second.

Compared with U37A, G38A G47A is lower in self-cleavage: 0.883 for the first, 0.882 for the second.

First: A35C G38A
Second: A35C G38U
The self-cleavage of the first is higher: 0.9 for the first, 0.881 for the second.

First: A33U G43U
Second: G39A G43U
The self-cleavage of the first is higher: 0.421 for the first, 0.134 for the second.

Going from A34C G39U to A34C A40G, the self-cleavage rises from 0.11 to 0.145.

Compared with A35G G36A, A35G G36U is higher in self-cleavage: 0.718 for the first, 0.765 for the second.

First: A35G G36C
Second: U37A G43A
The self-cleavage of the first is higher: 0.491 for the first, 0.145 for the second.

Going from U37A G43C to A34U A35C, the self-cleavage rises from 0.149 to 0.892.

First: A34U A35U
Second: G36A G42A
The self-cleavage of the first is higher: 0.841 for the first, 0.141 for the second.

First: A33C G45C
Second: A33C G45U
The self-cleavage of the first is lower: 0.531 for the first, 0.71 for the second.

Compared with A33C G45A, A33G G45C is lower in self-cleavage: 0.795 for the first, 0.545 for the second.

Compared with A35G G41A, A33U G47A is higher in self-cleavage: 0.246 for the first, 0.739 for the second.

Compared with A33U G47U, A35U G41A is lower in self-cleavage: 0.81 for the first, 0.678 for the second.

First: U37C G45U
Second: A34G G41U
The self-cleavage of the first is higher: 0.515 for the first, 0.131 for the second.

Going from A34G G41A to A35U G47U, the self-cleavage rises from 0.141 to 0.893.

Going from A35U G47A to A35C G48C, the self-cleavage rises from 0.899 to 1.08.

Compared with A35C G48U, A35C G48A is lower in self-cleavage: 0.978 for the first, 0.917 for the second.

Compared with A34C G47U, A34C G47A is higher in self-cleavage: 0.107 for the first, 0.122 for the second.

First: A34C A35U
Second: A34C A35G
The self-cleavage of the first is higher: 0.811 for the first, 0.212 for the second.

First: A34C G41C
Second: A34C G41U
The self-cleavage of the first is lower: 0.111 for the first, 0.112 for the second.

Going from U37G G48A to U37G G48C, the self-cleavage falls from 0.844 to 0.843.

Compared with A34U C46G, A34U C46U is higher in self-cleavage: 0.839 for the first, 0.84 for the second.

Compared with A34G G38U, G36U G48C is lower in self-cleavage: 0.677 for the first, 0.514 for the second.

First: G36U G48A
Second: A34U
The self-cleavage of the first is lower: 0.43 for the first, 0.915 for the second.

Going from A34G to A34C, the self-cleavage falls from 0.874 to 0.378.

First: A33U A34C
Second: A33U A34U
The self-cleavage of the first is lower: 0.637 for the first, 0.847 for the second.

Going from A33G G42A to G36A G43U, the self-cleavage falls from 0.215 to 0.147.

First: G36A G43A
Second: A35G G43U
The self-cleavage of the first is higher: 0.14 for the first, 0.13 for the second.

First: A35G G43C
Second: G38A G48A
The self-cleavage of the first is lower: 0.16 for the first, 0.998 for the second.

Going from G38A G48C to G38U G44U, the self-cleavage falls from 1.04 to 0.915.

Going from A35U G36A to A35U G36C, the self-cleavage falls from 0.593 to 0.592.

Compared with G36U A40G, G36U G45A is higher in self-cleavage: 0.125 for the first, 0.4 for the second.

Going from A35G G45C to A34U U37G, the self-cleavage falls from 0.373 to 0.372.

Compared with A35C G47A, A35C G47U is higher in self-cleavage: 0.832 for the first, 0.932 for the second.

Compared with A33G G47C, G39A G44A is lower in self-cleavage: 0.394 for the first, 0.339 for the second.

Compared with G38A G44C, A33U G38U is lower in self-cleavage: 0.932 for the first, 0.815 for the second.

First: U37G G39A
Second: U37G G45A
The self-cleavage of the first is lower: 0.126 for the first, 0.544 for the second.

Going from U37G G45C to U37G G45U, the self-cleavage rises from 0.268 to 0.47.

Compared with G39A, U37G G47U is higher in self-cleavage: 0.568 for the first, 0.724 for the second.

First: G38A C46U
Second: A35C G41A
The self-cleavage of the first is higher: 0.877 for the first, 0.611 for the second.

Compared with A34G G47A, A34C U37C is lower in self-cleavage: 0.477 for the first, 0.116 for the second.

Compared with A34C U37G, A34C U37A is lower in self-cleavage: 0.249 for the first, 0.169 for the second.

Compared with G36U G41A, G36U G41C is lower in self-cleavage: 0.124 for the first, 0.114 for the second.

Compared with G36U G41U, G36C G41A is higher in self-cleavage: 0.0887 for the first, 0.134 for the second.

Compared with G36C G41U, G36C G41C is higher in self-cleavage: 0.0915 for the first, 0.141 for the second.

Going from A33G G44A to A34U G38U, the self-cleavage falls from 0.79 to 0.506.

Going from A34C G42U to A34C G42C, the self-cleavage rises from 0.113 to 0.184.

Going from A34C G42A to A35C G42A, the self-cleavage rises from 0.143 to 0.32.

With A35C G42U the self-cleavage was 0.415.

— the RNAGym collection of RNA variant scans (doi:10.7554/elife.80360)
